Each block holds one substance with its values, some of them ahead of it.
How the values were obtained:
Assay in all cases: SEC; size exclusion chromatography of the purified LOV constructs under dark state conditions; apparent MW compared with the expected monomer MW of 17 kDa
[1] = target: McLOVn-TF residues 337-490 (isolated LOV domain of the Methylocystis LOV transcription factor) (Methylocystis Rockwall)
[2] = target: Methylocystis rosea short LOV protein McLOVr (Methylocystis rosea)
[3] = target: Methylocystis short LOV protein McLOVn (Methylocystis Rockwall)

stoichiometry N [1]: 2
Substance: McLOVn-TF residues 337-490 (isolated LOV domain of the Methylocystis LOV transcription factor) (domain or fragment)

stoichiometry N [2]: 2
Substance: Methylocystis rosea short LOV protein McLOVr (natural protein)

stoichiometry N [3]: 2
Substance: Methylocystis short LOV protein McLOVn (natural protein)

— PMC4416707
